Laboratory results taken from patent US20240132589A1 (ONCORESPONSE, published 2024).
Blank lines part the entries; values can stand above or below the binder they belong to.

How the values were obtained:
[1] = molecular target: T1, Recombinant human LILRB2 protein (ELISA antigen) (human, UniProt Q8N423 22-460); test: ELISA, plate-coated recombinant human LILRB2
T1 construct: also called LILRB2-His; recombinant LILRB2
Procedure: (§1) To confirm binding to human and cynomolgus LILRB2, antibodies in supernatants were evaluated for binding by enzyme-linked immunosorbent assay (ELISA). Recombinant LILRB2 proteins (human: SEQ ID NO: 48; cynomolgus) were diluted in PBS to 2 μg/mL and added to 384-well high-binding ELISA plates (Greiner Bio-One Microlon™) at 25 μL/well and incubated at 4° C. overnight. The plates were washed three times with Wash Buffer (0.05% Tween® 20 in PBS), using a microplate washer and then blocked with 90 μL/well of ELISA Blocking Buffer A (1% BSA in PBS) for 1 hour at room temperature (RT). After blocking, 25 μL/well of LILRB2 antibodies or isotype control were added to the plates and incubated for 1 hour at RT. After primary antibody binding, plates were washed three times with Wash Buffer using a microplate washer. Secondary detection antibody (HRP-goat anti-rabbit Fab fragment) was diluted to 1:3000 in assay diluent (1% BSA in PBS) and 25 μL/well was added to plates and incubated at RT protected from light for 1 hour. Following incubation, plates were washed four times with Wash Buffer, using a microplate washer. After removal of the final wash, 25 μL/well of 1-Step™ Ultra TMB-ELISA Substrate Solution (Thermo Fisher, No. 34028) was added and plates were incubated for 5-10 min at RT, protected from light. After development, the reaction was stopped by addition of 25 μL/well of 0.3 M HCl, and plates were read using an EnVision (Perkin Elmer) microplate reader at 450 nm. EC₅₀ values were calculated based on log concentration of the primary antibodies at optical density at 450 nm.
(§2) Select humanized variant antibodies were purified and tested for their ability to bind human LILRB2 by ELISA, using the method described in Example 2, and binding to HEK293T cells expressing human LILRB2, using the method described in Example 4. Representative data are shown for IgG4 variants in Table 6.

[2] = molecular target: T2, Human LILRB2 on stably transduced HEK293T cells (human, UniProt Q8N423 22-597); test: flow cytometry, HEK293T cells stably expressing human LILRB2
T2 construct: Lentiviral transduction (G&P Biosciences LTV2992); also called HEK293T-LILRB2; LILRB2-expressing HEK293T cells
T2 sequence (Q8N423 other isoform, or with tags, fused parts or gaps limits assumed): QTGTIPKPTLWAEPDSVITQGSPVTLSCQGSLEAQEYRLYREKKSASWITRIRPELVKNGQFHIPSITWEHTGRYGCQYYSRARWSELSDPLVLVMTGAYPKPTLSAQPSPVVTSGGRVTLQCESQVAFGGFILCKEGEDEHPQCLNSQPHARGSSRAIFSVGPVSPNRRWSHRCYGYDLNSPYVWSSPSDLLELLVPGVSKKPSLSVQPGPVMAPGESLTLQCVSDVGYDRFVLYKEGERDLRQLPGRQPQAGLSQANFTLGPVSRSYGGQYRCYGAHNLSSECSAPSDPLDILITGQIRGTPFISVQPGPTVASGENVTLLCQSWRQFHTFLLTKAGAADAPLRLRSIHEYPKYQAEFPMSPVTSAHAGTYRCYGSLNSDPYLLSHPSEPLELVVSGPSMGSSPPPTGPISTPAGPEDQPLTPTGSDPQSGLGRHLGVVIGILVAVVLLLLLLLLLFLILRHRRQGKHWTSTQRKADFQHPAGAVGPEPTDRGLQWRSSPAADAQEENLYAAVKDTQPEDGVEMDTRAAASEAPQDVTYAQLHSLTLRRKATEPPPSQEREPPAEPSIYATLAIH
Procedure: To confirm binding of LILRB2 antibodies, flow cytometry binding assays were performed using HEK293T cells stably expressing human LILRB2 (Example 3). […] The B2A-IgG1 and B2A-IgG4 chimeras bound the LILRB2-expressing HEK293T cells, with equivalent EC₅₀ values of 0.21 nM and 0.30 nM respectively.
as §2

LILRB2-Fc protein [3] = molecular target: T3, LILRB2-Fc protein (human, UniProt Q8N423 22-460, limits assumed); test: blocking ELISA, LILRB2-Fc binding to coated monomer HLA-G; Exp I
T3 construct: also called human LILRB2-Fc; not shown: Fc part
T3 sequence (Q8N423 22-460 limits assumed): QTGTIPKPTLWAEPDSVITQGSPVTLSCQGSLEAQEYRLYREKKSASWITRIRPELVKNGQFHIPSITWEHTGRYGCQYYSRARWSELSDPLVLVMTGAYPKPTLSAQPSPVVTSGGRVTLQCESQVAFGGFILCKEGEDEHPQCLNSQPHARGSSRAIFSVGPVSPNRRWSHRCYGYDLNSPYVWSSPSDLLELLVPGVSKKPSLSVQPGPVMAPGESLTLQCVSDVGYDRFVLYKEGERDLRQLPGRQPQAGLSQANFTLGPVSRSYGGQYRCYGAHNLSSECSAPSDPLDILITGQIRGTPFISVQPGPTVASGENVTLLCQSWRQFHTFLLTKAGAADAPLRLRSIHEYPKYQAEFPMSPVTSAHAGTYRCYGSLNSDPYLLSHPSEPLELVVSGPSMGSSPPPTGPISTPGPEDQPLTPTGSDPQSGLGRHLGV
Procedure: (§3) Tumor-associated HLA-G is an HLA Class I ligand for LILRB2. Binding of HLA-G to LILRB2 induces an immune suppressive signal in LILRB2 expressing myeloid cells. To determine if the anti-LILRB2 antibodies block the HLA-G-LILRB2 interaction and prevent the induction of an inhibitory signal, blocking ELISA assays in a dose titration were performed. 384-well plates were coated with monomer HLA-G (Fred Hutchinson Cancer Research Center, No. bHLA-G) at a concentration of 5 μg/mL, diluted in PBS, then plates were incubated at RT for 1 hour. Plates were rinsed with Wash Buffer three times, then blocked with Blocking Buffer A for 30 minutes at RT. During blocking incubation step, LILRB2-Fc protein and antibody titrations were prepared in Blocking Buffer A. LILRB2-Fc protein was then incubated with antibody titrations for 30 minutes at RT to allow for binding prior to addition onto plate. Plates were rinsed three times with Wash Buffer, then 25 μL of protein/antibody mixture was added per well and incubated for 1 hour at RT. Following antibody incubation, plates were washed three times with Wash Buffer. Anti-human IgG Fc-HRP secondary antibody was diluted and added at 25 μL/well. Plates were incubated in the dark for 1 hour at RT. Following secondary antibody incubation, plates were washed four times with Wash Buffer. 25 μL/well ultra-neat TMB was added per well for development and incubated for 5 minutes at RT. Reaction was stopped using 0.3 M HCl (25 μL/well). Absorbance was read at 450 nm using the Envision. The IC₅₀ for HLA-G blocking by clone B2A-IgG4 was 0.066 μg/mL.
(§4) Select humanized IgG4 variant antibodies were tested for their ability to block binding of human LILRB2-Fc to monomer HLA-G by ELISA, using the method described in Example 7.

LILRB2-Fc protein [4] = molecular target: T3, LILRB2-Fc protein; test: blocking ELISA, LILRB2-Fc binding to coated monomer HLA-G; Exp II
Procedure: as §3, §4

[5] = molecular target: T1, Recombinant human LILRB2 protein (ELISA …); test: ELISA, immobilized LILRB2-His; conditioned media of transient transfections
Procedure: as §1
Twenty-five IgG4 variants were expressed in mammalian cell culture as a combinatorial library of the five light and five heavy chains. In addition, B2A-IgG4 was included as a transfection control. The conditioned media from these transient transfections were assayed for human IgG concentration. A plate-based ELISA (see Example 2) was performed in which LILRB2-His was immobilized, and binding of humanized mAb variants was detected via an anti-human IgG4 HRP-labeled secondary antibody. The parental rabbit/human chimera clone transfection served as the benchmark EC₅₀ positive control.

[6] = molecular target: T4, Human LILRA1 on transiently transfected HEK293-6E cells (human, UniProt O75019 17-489); test: flow cytometry, transiently transfected HEK293-6E cells
T4 construct: whole, on cells; also called hLILRA1
T4 sequence (O75019 17-489): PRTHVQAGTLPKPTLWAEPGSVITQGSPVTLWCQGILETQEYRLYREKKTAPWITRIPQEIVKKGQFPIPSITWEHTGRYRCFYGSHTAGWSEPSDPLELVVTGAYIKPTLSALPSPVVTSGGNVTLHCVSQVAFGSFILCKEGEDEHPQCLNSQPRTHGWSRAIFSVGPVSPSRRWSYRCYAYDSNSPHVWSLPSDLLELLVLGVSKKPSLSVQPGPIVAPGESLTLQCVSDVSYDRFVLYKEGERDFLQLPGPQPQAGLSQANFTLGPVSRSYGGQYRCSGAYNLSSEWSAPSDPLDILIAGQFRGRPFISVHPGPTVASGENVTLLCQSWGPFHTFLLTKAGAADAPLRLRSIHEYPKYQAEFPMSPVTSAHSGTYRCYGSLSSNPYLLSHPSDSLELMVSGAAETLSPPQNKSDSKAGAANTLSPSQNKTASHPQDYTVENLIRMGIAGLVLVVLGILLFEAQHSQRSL

[7] = molecular target: T5, Human LILRA2 on transiently transfected HEK293-6E cells (human, UniProt Q8N149 24-483); test: as above
T5 construct: whole, on cells; also called hLILRA2
T5 sequence (Q8N149 24-483): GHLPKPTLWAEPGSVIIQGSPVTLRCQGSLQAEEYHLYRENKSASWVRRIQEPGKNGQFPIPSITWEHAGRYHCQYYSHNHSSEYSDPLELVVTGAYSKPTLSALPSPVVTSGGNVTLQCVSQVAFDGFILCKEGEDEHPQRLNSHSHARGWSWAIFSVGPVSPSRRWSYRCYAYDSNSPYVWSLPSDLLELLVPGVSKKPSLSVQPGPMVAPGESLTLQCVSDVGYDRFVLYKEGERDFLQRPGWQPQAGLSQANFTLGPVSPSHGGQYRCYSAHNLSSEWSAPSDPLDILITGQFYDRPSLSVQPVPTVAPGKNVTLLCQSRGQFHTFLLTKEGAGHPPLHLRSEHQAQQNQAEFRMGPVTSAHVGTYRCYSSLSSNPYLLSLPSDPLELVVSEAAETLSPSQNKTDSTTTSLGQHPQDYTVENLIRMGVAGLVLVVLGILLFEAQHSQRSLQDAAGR

[8] = molecular target: T6, Human LILRA4 on transiently transfected HEK293-6E cells (human, UniProt P59901 24-499); test: as above
T6 construct: whole, on cells; also called hLILRA4
T6 sequence (P59901 24-499): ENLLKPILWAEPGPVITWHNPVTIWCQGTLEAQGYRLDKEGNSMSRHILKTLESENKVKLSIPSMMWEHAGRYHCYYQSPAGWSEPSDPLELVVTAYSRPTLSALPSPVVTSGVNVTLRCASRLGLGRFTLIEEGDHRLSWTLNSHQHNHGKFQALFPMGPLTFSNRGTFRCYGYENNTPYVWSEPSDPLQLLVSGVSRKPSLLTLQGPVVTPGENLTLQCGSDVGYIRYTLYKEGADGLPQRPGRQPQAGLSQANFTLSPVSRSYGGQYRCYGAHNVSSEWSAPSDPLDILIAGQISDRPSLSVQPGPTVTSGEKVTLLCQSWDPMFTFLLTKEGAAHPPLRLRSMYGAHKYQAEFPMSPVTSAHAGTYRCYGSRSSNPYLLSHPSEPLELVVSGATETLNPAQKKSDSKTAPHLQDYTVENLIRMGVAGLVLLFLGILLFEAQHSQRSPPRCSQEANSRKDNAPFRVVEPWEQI

[9] = molecular target: T7, Human LILRA5 on transiently transfected HEK293-6E cells (human, UniProt A6NI73 42-299); test: as above
T7 construct: whole, on cells; also called hLILRA5
T7 sequence (A6NI73 42-299): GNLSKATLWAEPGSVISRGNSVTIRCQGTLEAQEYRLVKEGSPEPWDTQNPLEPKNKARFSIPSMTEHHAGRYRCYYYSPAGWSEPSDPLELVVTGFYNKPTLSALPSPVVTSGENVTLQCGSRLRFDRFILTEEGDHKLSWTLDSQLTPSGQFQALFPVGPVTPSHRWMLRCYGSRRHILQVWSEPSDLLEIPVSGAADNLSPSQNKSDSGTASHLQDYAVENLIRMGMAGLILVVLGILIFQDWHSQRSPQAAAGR

[10] = molecular target: T8, Human LILRA6 on transiently transfected HEK293-6E cells (human, UniProt Q6PI73 24-481); test: as above
T8 construct: whole, on cells; also called hLILRA6
T8 sequence (Q6PI73 24-481): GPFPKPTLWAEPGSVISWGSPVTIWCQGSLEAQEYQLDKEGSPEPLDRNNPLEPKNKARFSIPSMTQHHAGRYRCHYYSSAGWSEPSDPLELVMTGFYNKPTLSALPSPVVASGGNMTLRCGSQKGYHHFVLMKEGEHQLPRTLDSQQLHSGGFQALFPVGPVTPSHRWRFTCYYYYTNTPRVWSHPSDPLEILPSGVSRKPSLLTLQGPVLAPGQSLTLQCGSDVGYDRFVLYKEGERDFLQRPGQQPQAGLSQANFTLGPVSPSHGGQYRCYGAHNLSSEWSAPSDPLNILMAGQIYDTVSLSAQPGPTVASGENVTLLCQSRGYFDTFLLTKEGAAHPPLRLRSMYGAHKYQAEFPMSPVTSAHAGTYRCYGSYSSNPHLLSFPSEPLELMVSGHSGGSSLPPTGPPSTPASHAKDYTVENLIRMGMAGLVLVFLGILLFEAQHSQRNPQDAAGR

[11] = molecular target: T9, Human LILRB1 on transiently transfected HEK293-6E cells (human, UniProt Q8NHL6 24-650); test: as above
T9 construct: whole, on cells; also called hLILRB1
T9 sequence (Q8NHL6 24-650): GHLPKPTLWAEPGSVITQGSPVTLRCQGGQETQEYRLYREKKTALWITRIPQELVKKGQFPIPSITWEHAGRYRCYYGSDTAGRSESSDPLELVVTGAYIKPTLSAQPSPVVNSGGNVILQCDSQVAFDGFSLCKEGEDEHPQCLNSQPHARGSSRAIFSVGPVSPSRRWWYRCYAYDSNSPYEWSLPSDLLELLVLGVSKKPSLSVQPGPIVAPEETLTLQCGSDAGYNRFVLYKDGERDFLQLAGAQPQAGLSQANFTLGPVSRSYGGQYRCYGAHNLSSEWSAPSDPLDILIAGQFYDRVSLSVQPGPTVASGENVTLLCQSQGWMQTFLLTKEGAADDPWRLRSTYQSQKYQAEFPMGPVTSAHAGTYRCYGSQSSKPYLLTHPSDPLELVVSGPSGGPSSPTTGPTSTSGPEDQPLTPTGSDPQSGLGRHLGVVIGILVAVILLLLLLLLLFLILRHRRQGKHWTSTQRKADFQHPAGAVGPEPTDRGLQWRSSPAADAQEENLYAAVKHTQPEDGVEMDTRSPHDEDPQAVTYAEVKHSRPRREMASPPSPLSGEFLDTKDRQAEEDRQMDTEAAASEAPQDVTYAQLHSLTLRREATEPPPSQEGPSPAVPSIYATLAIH

[12] = molecular target: T10, Human LILRB3 on transiently transfected HEK293-6E cells (human, UniProt O75022 24-631); test: as above
T10 construct: whole, on cells; also called hLILRB3

[13] = molecular target: T11, Human LILRB4 on transiently transfected HEK293-6E cells (human, UniProt Q8NHJ6 22-448); test: as above
T11 construct: whole, on cells; also called hLILRB4

[14] = molecular target: T12, Human LILRB5 on transiently transfected HEK293-6E cells (human, UniProt O75023 24-590); test: as above
T12 construct: whole, on cells; also called hLILRB5
T12 sequence (O75023 24-590): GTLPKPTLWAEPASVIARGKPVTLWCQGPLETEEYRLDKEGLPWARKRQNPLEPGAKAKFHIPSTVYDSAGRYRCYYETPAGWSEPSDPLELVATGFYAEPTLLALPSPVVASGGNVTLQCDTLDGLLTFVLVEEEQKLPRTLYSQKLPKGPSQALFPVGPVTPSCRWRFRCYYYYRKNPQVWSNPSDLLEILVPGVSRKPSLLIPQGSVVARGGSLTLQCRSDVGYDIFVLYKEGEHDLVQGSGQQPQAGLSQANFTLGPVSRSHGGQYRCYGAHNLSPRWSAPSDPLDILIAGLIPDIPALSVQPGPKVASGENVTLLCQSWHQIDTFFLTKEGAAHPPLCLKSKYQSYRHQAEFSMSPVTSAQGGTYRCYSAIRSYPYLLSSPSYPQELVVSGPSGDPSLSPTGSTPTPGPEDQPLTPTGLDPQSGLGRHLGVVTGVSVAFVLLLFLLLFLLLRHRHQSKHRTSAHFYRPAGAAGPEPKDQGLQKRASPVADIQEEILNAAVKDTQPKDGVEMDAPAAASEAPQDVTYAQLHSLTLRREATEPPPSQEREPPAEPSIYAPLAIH

[15] = molecular target: T13, Human LILRB2 on transiently transfected HEK293-6E cells (human, UniProt Q8N423 22-597); test: as above
T13 construct: whole, on cells; also called hLILRB2
Procedure: (§5) To determine that the anti-LILRB2 antibodies specifically bind to LILRB2 and not other LILRB and LILRA family members, a cross-reactivity assay was performed. Cross-reactivity of the LILRB2 antibodies to other LILRB proteins was assessed by antibody binding to transiently transfected HEK293-6E cells, measured by flow cytometry. Binding was evaluated to HEK293-6E cells transiently transfected with human LILRB-1, -2, -3, -4, and 5 plasmids (Origene, Nos. RC219949, RC217935, RC211228, RC220932, RC206516) or to cells transiently transfected with human LILRA-1, -2, -4, -5, and -6 plasmids (Origene, Nos. RC210808, RC205626, RC220452, RC212310 RC212965). […] Murine primary antibodies to LILRA and LILRB targets and corresponding isotype controls were used to confirm specific binding of all targets tested (R&D Systems) while an AF647 F(ab′)₂ fragment goat anti-mouse antibody (Jackson ImmunoResearch, No. 115-606-062) was used for the detection of bound positive control antibodies. No binding of B2A-IgG4 or B2A-IgG1 to LILRB-1, -3, -4, or -5 was observed, and no binding of either antibody to LILRA-1, -2, -4, -5, or -6 was observed, confirming specificity of these antibodies.
(§6) Select humanized variant antibodies were tested for their ability to bind other LILRB or LILRA family members, using the method and commercially available positive control antibodies of Example 5.

[16] = molecular target: T4, Human LILRA1 on transiently transfected …; test: as above; remark: listed apart in the source
Procedure: as §5, §6

[17] = molecular target: T5, Human LILRA2 on transiently transfected …; test: as above; remark: listed apart in the source
Procedure: as §5, §6

[18] = molecular target: T6, Human LILRA4 on transiently transfected …; test: as above; remark: listed apart in the source
Procedure: as §5, §6

[19] = molecular target: T7, Human LILRA5 on transiently transfected …; test: as above; remark: listed apart in the source
Procedure: as §5, §6

[20] = molecular target: T8, Human LILRA6 on transiently transfected …; test: as above; remark: listed apart in the source
Procedure: as §5, §6

[21] = molecular target: T9, Human LILRB1 on transiently transfected …; test: as above; remark: listed apart in the source
Procedure: as §5, §6

[22] = molecular target: T10, Human LILRB3 on transiently transfected …; test: as above; remark: listed apart in the source
Procedure: as §5, §6

[23] = molecular target: T11, Human LILRB4 on transiently transfected …; test: as above; remark: listed apart in the source
Procedure: as §5, §6

[24] = molecular target: T12, Human LILRB5 on transiently transfected …; test: as above; remark: listed apart in the source
Procedure: as §5, §6

T1 sequence (Q8N423 other isoform, or with tags, fused parts or gaps limits assumed): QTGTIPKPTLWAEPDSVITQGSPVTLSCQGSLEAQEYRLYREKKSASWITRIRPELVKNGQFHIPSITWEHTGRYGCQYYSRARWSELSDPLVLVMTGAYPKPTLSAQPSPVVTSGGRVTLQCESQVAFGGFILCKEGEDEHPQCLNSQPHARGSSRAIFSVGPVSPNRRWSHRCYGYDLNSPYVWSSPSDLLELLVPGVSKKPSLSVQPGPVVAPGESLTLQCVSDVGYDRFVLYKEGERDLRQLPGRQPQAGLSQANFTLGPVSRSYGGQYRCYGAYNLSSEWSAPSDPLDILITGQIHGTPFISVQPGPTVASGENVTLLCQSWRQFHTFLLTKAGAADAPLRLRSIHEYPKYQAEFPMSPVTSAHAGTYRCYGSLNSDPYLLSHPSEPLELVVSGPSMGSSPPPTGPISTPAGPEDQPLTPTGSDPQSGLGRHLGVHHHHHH

EC50 [1]: 3.55 ng/mL | BMAX [gMFI] [2]: 9950 gMFI | EC50 [2]: 0.31 ng/mL | IC50 (LILRB2-Fc protein [3]): 5850 ng/mL | IC50 (LILRB2-Fc protein [4]): 5970 ng/mL | EC50 [5]: 4.5 ng/mL
B1: B2H4-13 (antibody, V domains shown)
VH: QVQLEESGGRVVQPGRSLRLSCAASGFSLSTYAMSWVRQAPGKGLEWIGWIYNDGSTYYAAWAKGRFTISKDTSKTTVFLQMNSLKPDDTATYFCAREGDYIGYFNIWGQGTLVTVSS
VL: DIEMTQSPSSVSASVGDRVTLTCQASQSIGSNLAWYQQKPGQAPKLLIYAAATLASGVPSRFKGSGSGTDFTLTISSLQPEDFATYYCQSYVSGSSDVAFGGGTEVVVK
notes: Humanized variant, human IgG4 / kappa

binding result [6]: no binding | binding result [7]: no binding | binding result [8]: no binding | binding result [9]: no binding | binding result [10]: no binding | binding result [11]: no binding | binding result [12]: no binding | binding result [13]: no binding | binding result [14]: no binding | Bmax (MFI) [15]: 11000 MFI | Bmax (MFI) [16]: 776 MFI | Bmax (MFI) [17]: 36.1 MFI | BMAX [gMFI] [18]: 108 gMFI | Bmax (MFI) [19]: 124 MFI | Bmax (MFI) [20]: 210 MFI | Bmax (MFI) [21]: 39.8 MFI | Bmax (MFI) [22]: 142 MFI | Bmax (MFI) [23]: 38 MFI | Bmax (MFI) [24]: 147 MFI
B2: B2H1-11 (antibody, V domains shown)
VH: QVQLEESGGRVVQPGRSLRLSCAASGFSLSTYAMSWVRQAPGKGLEWIGWIYNDGSTYYAAWAKGRFTISKDTSKTTVFLQMNSLKPDDTATYFCAREGDYIGYFNIWGQGTLVTVSS
VL: DIQMTQSPSSLSASVGDRVTITCQASQSIGSNLAWYQLKPGQRPKLLIYAAATLASGVPSRFKGSGSGTDFTLTISSLQSEDAATYYCQSYVSGSSDVAFGGGTEVVVK
notes: Humanized variant, human IgG1 / kappa

EC50 [1]: 2.75 ng/mL | BMAX [gMFI] [2]: 9990 gMFI | EC50 [2]: 0.21 ng/mL | IC50 (LILRB2-Fc protein [3]): 5160 ng/mL | IC50 (LILRB2-Fc protein [4]): 5140 ng/mL | EC50 [5]: 4.67 ng/mL
B3: B2H4-35 (antibody, V domains shown)
VH: QVQLVESGGRVVQPGTPLRLSCAASGFSLSTYAMSWVRQAPGKGLEWVAWIYNDGSTYYAAWAKGRFTISRDTSKNTLYLQTNSLKPDDTAVYYCAREGDYIGYFNIWGQGTLVTVSS
VL: DVVMTQTPSSVSAALGGTVTIKCQASQSIGSNLAWYQLKPGQRPKLLIYAAATLASGGSSRFKGSGSGTDFTLTISSLEPADAATYYCQSYVSGSSDVAFGGGTEVVVK
notes: as for B1
